The chains are these.
B1: SIRP12 (antibody, human IgG4 S228P, kappa, V domains shown)
VH: QVQLVQSGAEVKKPGASVKVSCKASGYSFTDYFLNWVRQAPGQGLEWMGRINPYNGDSFINQNFRDRVTMTRDTSTSTVYMELSSLRSEDTAVYYCARGGYDGYFIAYFDYWGAGTTVTVSS
VL: DIQMTQSPSSLSASVGDRVTITCKASQDINSHLSWYQQKPGKAPKLLIYRANRLATGVPSRFSGSGSGTDFTFTISSLEYEDIATYYCLQYDEFPYTFGGGTKLEIKR
B2: SIRP18 (antibody, human IgG4 S228P, kappa, V domains shown)
VH: EVQLVQSGAEVKKPGESLKISCKGSGYSFTDYFLNWVRQMPGKGLEWMGRINPYNGDSFINQNFRDQVTISADKSISTAYLQWSSLKASDTAMYYCARGGYDGYFIAYFDYWGAGTTVTVSS
VL: DIQMTQSPSSLSASVGDRVTITCKASQDINSHLSWYQQKPGKAPKLLIYRANRLATGVPSRFSGSGSGTDFTFTISSLEYEDIATYYCLQYDEFPYTFGGGTKLEIKR
B3: SIRP21 (antibody, human IgG4 S228P, kappa, V domains shown)
VH: QVQLVQSGAEVKKPGASVKVSCKASGYSFTDYFLNWVRQAPGQGLEWMGRINPYNGDSFINQNFRDRVTMTVDTSTSTVYMELSSLRSEDTAVYYCARGGYDGYFIAYFDYWGAGTTVTVSS
VL: DIQMTQSPSSLSASVGDRVTITCKASQDINSHLSWYQQKPGKAPKLLIYRANRLATGVPSRFSGSGSGTDFTFTISSLEYEDIATYYCLQYDEFPYTFGGGTKLEIKR
B4: SIRP15 (antibody, human IgG4 S228P, kappa, V domains shown)
VH: QVQLVQSGAEVKKPGSSVKVSCKASGYSFTDYFLNWVRQAPGQGLEWMGRINPYNGDSFINQNFRDRVTITADKSTSTAYMELSSLRSEDTAVYYCARGGYDGYFIAYFDYWGAGTTVTVSS
VL: DIQMTQSPSSLSASVGDRVTITCKASQDINSHLSWYQQKPGKAPKLLIYRANRLATGVPSRFSGSGSGTDFTFTISSLEYEDIATYYCLQYDEFPYTFGGGTKLEIKR
B5: SIRP1 (antibody, mouse IgG1, kappa, V domains shown)
VH: QVQLQQSGAELMKPGASVKISCKATGYSFTKYWIEWVKQRPGHGLEWIGEILPGSVITNYNEKFKGKATFTADTSSNTVYMQLSSLTSEDSAVYYCTKWGLYDSDDGVDYWGQGTTLTVSS
VL: ENVLTQSPAIMSASLGEKVTMSCRASSGVNYMYWYQQKSDASPKLLIYYTSILAPGVPARFSGSGSGNSYSLTISSMEGEDAATYYCQQFTSSPYTFGGGTKLEIKR
B6: SIRP10 (antibody, V domains shown)
VH: EVQLQESGAELVRPGTSVKMSCKAAGYTFSNYLIGWIKQRPGHGLEWIGDIYPGDNNTNYNEKFRVKATLTADTSSNTAYMHLTSLTSEDSAIYYCAGGTDYDGFANWGQGTLVTVSA
VL: ENVLTQSPAIMSASLGEKVTMSCRASSSVNYMYWYQQKSDASPKLWIYYTSKLAPGVPARFSGSGSGNSYSLTISSMEGEDAATYYCQQFTSSPFTFGSGTKLEIK
B7: SIRP7 (antibody, V domains shown)
VH: EVQLQQSGPELVKPGASVKMSCRASGYTFSTYVMHWIKHRPGQGLEWIGYINPNNDGPNYNEKFKGKATLTSDISSSTAYMELSSLTSEDSAVYFCSRWDSYNSAAGFAYWGHGTLVTVSA
VL: EIVLTQSPTTMAASPGEKITIICSASSSISSNFLHWYQQKPGFSPRFLIYRTSILASGVPTRFSGSGSGTSYSLTIDTMEAEDVATYYCQQGSGLPLTFGSGTKLEIK
B8: SIRP9 (antibody, V domains shown)
VH: EVQLQESGAELVRPGASVKLSCKALGYTFTDYEIHWVKETPVYGLEWIGDIHPGSGGTANNQKFKGKATLTADKSSNTAYMELSSLTSEDSAVYYCTRAVSGYYAMDYWGQGTSVTVSS
VL: DIQMTQSSSSFSGSLGDRLTINCKASEDIYDRVAWYQQKPGNAPRLLISGTASLETGVLSRFSGSGSGKDYTLSINGLQAEDVATYYCQQYWTTPWTFGGGTKLEIK
B9: SIRP23 (antibody, human IgG4 S228P, kappa, V domains shown)
VH: EVQLQQSGPDLVKPGASVKISCKASGYSFTDYFLNWVKQSHGKSLEWIGRINPYNGDSFINQNFRDKATLTVDKSSTTAHMDLLSLTSEDSAIYYCGRGGYDGYFIAYFDYWGQGSLVTVSA
VL: DIKMTQSPSSMYASLGQRVTITCKASQDINSHLSWFQEKPGKSPKTLIYRANRLADGVPSRFSGSGSGQDYFLTISSLEYEDVGIYYCLQYDEFPYTFGGGTKLEIKR
B10: SIRP4 (antibody, V domains shown)
VH: EVQLQQSGPDLVKPGASVKISCKASGYSFTDYFLNWVKQSHGKSLEWIGRINPYNGDSFINQNFRDKATLTVDKSSTTAHMDLLSLTSEDSAIYYCGRGGYDGYFIAYFDYWGQGSLVTVSA
VL: DIKLTQSQSSMYSSLGQRVTITCKASQDINSHLSWFQEKPGKSPKTLIYRANRLADGVPSRFSGSGSGQDYFLTISSLEYEDVGIYYCLQYDEFPYTFGGGTKLEIK
B11: SIRP3 (antibody, mouse IgG1, kappa, V domains shown)
VH: EVQLQQSGPEVVKPGASVKMSCKASGYTFTSYVMHWVKQKPGQGLEWIGYINPYNDGPKYNEKFKGKATLTSDKSSSTAYMELSSLTSEDSAVYFCARWDYFNSASGFAFWGQGTLVTVSA
VL: EIVLTQSPTTMAASPGEKITIICSASSIIGSDFLHWYQQRPGFSPKFLIYRTSILASGVPTRFTGSGSGTSYSLTIGTMEAEDVATYYCQQGSGLPLTFGSGTKLEMKR
B12: SIRP8 (antibody, V domains shown)
VH: EVQLQESGGGLVKPGGSLKLSCAASGFTLSTYTMSWVRQTPEKRLEWVAIITSGDTYTYYPDSVKGRFTISRDNAKNTLYLQMSSLKSEDTGMYYCTRDRPLFHWGQGTTLTVST
VL: QIVLTQSPAIMSASPGEKVTMTCSASSSVSYMYWYQQKPGSSPRLLIYDTSNLASGVPVRFSGSGSGTSYSLTISRMEAEDAATYYCQQWSSFPWTFGGGTKLEIK
B13: SIRP2 (antibody, mouse IgG1, kappa, V domains shown)
VH: EVKLVESGGGLVQPGGSLKLSCAASGFSFSGCTMSWIRQTPERRLEWVAYISNGGDITYYPDTVKGRFTISRDNAKNSLYLQMSSLKSEDTAMYYCARLDGYYYAMDFWGQGTSVTVSS
VL: DILLTQSPAILSVSPGERVSFSCRASQSIGTSIHWYQQRTNGSPRLLIKYGSESISGIPSRFSGSGSGTDFTLSINSVESEDIADYYCQQSNTWPLTFGDGTKLELKR
B14: SIRP5 (antibody, V domains shown)
VH: QVQLQQSAAELARPGASVKMSCKASGYTFTSYTMHWVKQRPGQGLEWIGYINPTIGYTEYNQKFKDKTTLTADKSSSTAYMQLSSLTSEDSAVYYCVRLVITSVLGRAMDYWGQGTSVTVSS
VL: QIVLTQSPALMSASPGEKVTMTCSASSSVSYMYWFQQKPRSSPKPWIYLTSNLASGVPARFSGSGSGTSYSLTISSMEAEDAATYYCQQWSGNPFTFGSGTKLEIK
B15: SIRP6 (antibody, V domains shown)
VH: QIQLVQSGPELKKPGETVKISCKASGYTFTDYGVNWVKQGPGKDLQWMGWVNTNTRESTYVEDFKGRFAFSLETSASTAYLQINNLKNEDSSTYFCARGAYDAYYYYYGMDYWGQGTSVTVSS
VL: DIQMTQSPASLSASVGETVTITCRASENIYSYLTWYKQKQGKSPQLLVYNAKTLAEGVPSRFSGSGSGTQFSLKINSLQPEDFGSYYCQHHYGSPRTFGGGTKLEIK

For the assay, the target named is Fc tagged human SIRPα (ACRO #SIG-H5251, genotype variant 1) (human) (UniProt P78324). Briefly: solid-phase ELISA on plate-coated Fc tagged human SIRPα; apparent Kd. (In general: ELISA stands for enzyme-linked immunosorbent assay.)
Chain of Fc tagged human SIRPα (ACRO #SIG-H5251, genotype variant 1) (human) (P78324 31-370, change not shown): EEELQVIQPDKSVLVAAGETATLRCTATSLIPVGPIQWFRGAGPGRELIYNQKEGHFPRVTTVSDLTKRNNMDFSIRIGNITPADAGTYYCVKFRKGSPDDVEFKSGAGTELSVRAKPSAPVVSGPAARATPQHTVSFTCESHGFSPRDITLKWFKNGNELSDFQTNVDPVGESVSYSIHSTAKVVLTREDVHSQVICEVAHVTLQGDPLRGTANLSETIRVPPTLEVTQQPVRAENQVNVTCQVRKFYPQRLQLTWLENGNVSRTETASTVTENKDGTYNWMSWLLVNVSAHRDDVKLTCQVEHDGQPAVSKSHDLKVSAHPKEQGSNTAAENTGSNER
On to B1, for which the Kd was determined as 0.165 nM.
Regarding B2, the Kd came out at 0.364 nM.
Consider B3, for which the Kd was 0.274 nM.
B4: the Kd stood at 0.608 nM.
Consider B5, for which the Kd is 0.039 nM.
For B6, the Kd is > 10 nM.
In the case of B7, the Kd worked out at 0.197 nM.
With B8 the figure was 0.583 nM.
With B9, the Kd came to 0.164 nM.
Regarding B10, the Kd was determined as 0.161 nM.
With B11, the Kd worked out at 0.289 nM.
On to B12, for which the Kd was determined as 0.057 nM.
As for B13, the Kd amounted to 0.182 nM.
With B14, the Kd came out at 0.065 nM.
On to B15, for which the Kd is 0.131 nM.

(Values after patent US20220226469A1.)
